Experimental data published in PMC9832833, “Mitogen-activated protein kinase 14-mediated phosphorylation of MaMYB4 negatively regulates banana fruit ripening”.

How the values were obtained:
[1] = target: T1, MBP-MaMPK14 (Musa acuminata (banana), UniProt A0A804IKS6 1-366); experiment: EMSA; MBP-MaMPK14 alone; EMSA buffer not stated (kit per cited Fan et al.); kinase preincubation in 20 mM Tris-HCl, 20 mM MgCl2, 100 mM NaCl, 10 mM ATP, 2 mM DTT, 0.5 h at 30 C; pH not; details: protein: recombinant; tags: MBP (N-term, pMAL-c2X); label: biotin; blunt
T1 sequence: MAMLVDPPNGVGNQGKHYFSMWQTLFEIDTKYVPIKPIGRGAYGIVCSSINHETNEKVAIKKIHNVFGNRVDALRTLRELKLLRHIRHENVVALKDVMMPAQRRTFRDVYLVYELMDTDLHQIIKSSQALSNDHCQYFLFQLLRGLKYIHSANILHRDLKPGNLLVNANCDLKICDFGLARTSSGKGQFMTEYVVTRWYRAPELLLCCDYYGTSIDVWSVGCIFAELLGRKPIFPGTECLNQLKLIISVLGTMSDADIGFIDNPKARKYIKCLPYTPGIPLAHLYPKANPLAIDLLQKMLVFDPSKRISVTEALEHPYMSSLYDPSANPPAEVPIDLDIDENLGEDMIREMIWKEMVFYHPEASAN

[2] = target: GST-MaMYB4 (Musa acuminata (banana), UniProt A0A804HW33 1-241); experiment: EMSA; without MBP-MaMPK14; EMSA buffer not stated (kit per cited Fan et al.); kinase preincubation in 20 mM Tris-HCl, 20 mM MgCl2, 100 mM NaCl, 10 mM ATP, 2 mM DTT, 0.5 h at 30 C; pH not; details: protein: recombinant; tags: GST (N-term, pGEX-4T-1); label: biotin; blunt
Sequence of GST-MaMYB4 (A0A804HW33 entry or part of it): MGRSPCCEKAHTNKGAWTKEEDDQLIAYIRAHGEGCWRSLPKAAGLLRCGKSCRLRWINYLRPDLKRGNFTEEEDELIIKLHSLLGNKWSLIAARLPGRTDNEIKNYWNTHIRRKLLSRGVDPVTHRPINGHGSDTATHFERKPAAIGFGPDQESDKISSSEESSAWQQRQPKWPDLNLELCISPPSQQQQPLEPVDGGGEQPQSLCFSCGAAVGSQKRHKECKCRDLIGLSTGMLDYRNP

B1: MaACS1 promoter probe (dsDNA)
DNA 1: CCAAAAACAGGGTAGGTGGATGGCTTACATGCTCACCTAATAATTTATTT
DNA 2: AAATAAATTATTAGGTGAGCATGTAAGCCATCCACCTACCCTGTTTTTGG
B1: no binding [1]; binds [2].
